Results as given in patent US20120219498A1 (RAMOT AT TEL AVIV UNIVERSITY, published 2012).

Legend:
[1] = target: T1, glucose-regulated protein (GRP78) (Homo sapiens, UniProt P11021 19-654); experiment: cell ELISA on endothelial cells, peptide 2 hours, then competitor anti-GRP78 antibody at 2 ug/ml
T1 construct: Endogenous GRP78: on the membrane of human umbilical vein endothelial cells (HUVEC) or tumor cell lines in FACS and cell ELISA; from HUVEC lysate in the immunoprecipitation and Western blot experiments; also called GRP78 receptor; ADOPeps receptor
Protocol: Endothelial cells were incubated for 2 hours with increasing concentrations of ADOPeps, following which the cells were incubated for another 1 hour with the 2 μg/ml of anti-GRP78 antibody and the amount of bound antibody on EC was detected using an ELISA reader.
Endothelial cells (20,000 per well) were seeded in 96 well plates for 24 hours in the presence of the complete medium. Plates were washed with PBS over night and rehydrated with PBS, 0.1% Na Azide and 5% FCS. ADOPep1, ADOPep2 and ADOPep3 were added to washed plates for 2 hours at room temperature at concentrations of 0.01, 0.1 and 1 microgram per ml. Anti-GRP78 antibody (goat polyclona IgG, Santa Cruz Biotechnology, Calif., USA) was added to the plates for 1 hour at room temperature at a concentration of 2 micrograms/ml per well. After washing, bound anti-GRP78 antibody was detected by incubation with anti-goat IgG Peroxidase conjugated (Jackson Immuneresearch Laboratories, PA, USA). After 5 washes with PBS-0.1% Tween 20, 100 μl/well of TMB+ Substrate-Chromogen (DAKOCytomation, CA, USA) was added for a maximum of 30 minutes. Reaction was stopped with 1N HCl. Color developed was determined by an ELISA reader at 450 nm.

[2] = target: T1, glucose-regulated protein (GRP78); experiment: endothelial cells, normoxia, peptide at 0.01, 0.1 or 1 ng/ml for 2 hours, then competitor biotinylated ADOPep1 at 2 ug/ml, HRP-streptavidin
Protocol: Endothelial cells were incubated for 2 hours under normoxia conditions in the presence of increasing concentrations (0.01, 0.1 or 1 ng/ml) of peptides having the amino acid sequences corresponding to Motif A (HWRRP; SEQ ID NO:7), Motif B (HWRRA; SEQ ID NO:8), Motif C (AHLLP; SEQ ID NO:6) or non-biotinylated ADOPep1 (SEQ ID NO:2) and then were incubated for 1 hour with biotinylated ADOPep1 (2 μg/ml) and the binding of biotinylated ADOPep1 to endothelial cells was determined using HRP-streptavidin.

T1 sequence (P11021 19-654 limits assumed): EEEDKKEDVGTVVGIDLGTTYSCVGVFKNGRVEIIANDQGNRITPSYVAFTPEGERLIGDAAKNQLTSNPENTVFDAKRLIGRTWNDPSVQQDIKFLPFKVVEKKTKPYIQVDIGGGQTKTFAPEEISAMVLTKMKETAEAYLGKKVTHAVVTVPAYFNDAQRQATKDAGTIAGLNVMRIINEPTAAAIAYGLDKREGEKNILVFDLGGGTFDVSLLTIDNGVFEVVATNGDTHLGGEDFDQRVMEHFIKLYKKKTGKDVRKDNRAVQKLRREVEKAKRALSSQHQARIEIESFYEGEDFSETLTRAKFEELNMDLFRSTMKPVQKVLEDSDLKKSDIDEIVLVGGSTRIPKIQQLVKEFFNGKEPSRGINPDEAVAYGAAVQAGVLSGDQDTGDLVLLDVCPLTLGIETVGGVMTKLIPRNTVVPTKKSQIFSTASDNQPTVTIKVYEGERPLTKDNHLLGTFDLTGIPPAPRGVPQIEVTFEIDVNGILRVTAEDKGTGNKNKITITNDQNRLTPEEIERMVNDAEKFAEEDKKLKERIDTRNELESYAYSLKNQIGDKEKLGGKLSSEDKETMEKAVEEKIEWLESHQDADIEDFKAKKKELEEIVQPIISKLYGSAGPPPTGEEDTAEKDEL

B1: ADOPep2 (peptide)
peptide: ENFLHWRRAHLL
percent inhibition of binding of anti-GRP78 antibody [1]: ≤ 50%

B2: ADOPep3 (peptide)
peptide: AVTLENFLHWRR
percent inhibition of binding of anti-GRP78 antibody [1]: ≤ 50%

B3: Motif B peptide (HWRRA) (peptide)
peptide: HWRRA
notes: also called peptide motif B
binding result [2]: binds

B4: ADOPep1 (peptide)
peptide: HWRRAHLLPRLP
notes: Unlabelled synthetic peptide (SynPep); also called non-biotinylated ADOPep1
percent inhibition of binding of anti-GRP78 antibody [1]: ≤ 50%
